Consider one protein from article PMC3605359, “Expression, purification and biochemical characterization of Schizosaccharomyces pombe Mcm4, 6 and 7” (BMC Biochemistry, 2013).

Data set [1] concerns the molecule itself. The data set is described as follows: SEC; 4C1 at the higher protein concentration (12-mer peak, ~500 kDa); 250 mM NaCl, 50 mM Tris pH8, 1 mM DTT.
Data set [2] deals with the molecule itself. The data set is described as follows: SEC; 4C1 at much lower protein concentration: a center fraction of the 12-mer peak injected again on the same column (hexamer peak, ~250 kDa). (In gel filtration, larger molecules generally elute earlier.)

B1: 4C1, core fragment of S. pombe Mcm4 (domain or fragment)
chain: ISDEEVEKIQQVSKRDDIYDILSRSLAPSIYEMDDVKKGLLLQLFGGTNKSFHKGASPRYRGDINILMCGDPSTSKSQILKYVHKIAPRGVYTSGKGSSAVGLTAYITRDQDTKQLVLESGALVLSDGGICCIDEFDKMSDATRSILHEVMEQQTVTVAKAGIITTLNARTSILASANPIGSKYNPDLPVTKNIDLPPTLLSRFDLVYLILDRVDETLDRKLANHIVSMYMEDTPEHATDMEVFSVEFLTSYITYARNNINPVISEEAAKELVNAYVGMRKLGEDVRASEKRITATTRQLESMIRLSEAHAKMHLRNVVEVGDVLEAARLIKTAIKDYATD
Turning to B1, the entries for the “stoichiometry N” value in data set [1] and in data set [2] were 12 and 6, respectively.
